Laboratory results reported in IntAct's records for PubMed 20126385.

B1: Adenomatous polyposis coli protein-related protein 1 (Caenorhabditis elegans), Q21227-1 (parent)
chain: MSSSSSDENETTIHRTGSNTGGSGIYSQPRAGSSKRTSNVRHDVSDVDDEEEHYARFREDTAIEVDDAITVLLSSLHFEHKRDIVPTDEDDNKLRELHEKIFALITSESDVNRKRRLKKALPASNCVREQVYYLRRKPSTPPASYYHRLNAALHTIVKESFGEEYRKVATVLGLVEALAEVLILEVHTFGINETNPGEHRNIRKLIANALTNLTYGQIHSKRRLCSYDGFIRCVVRIVIESPNITQVYAGLIRNLSWNADSGMSEALQPTVHALSIAAVHAHTHRFDVTATLSALWNLAGHSVENKRTICDTPNCLKVLASLLSPDARFTSLVDSATGILKYVSQYLANTSTHLELRSLLITRMLTLLKSASFTCVTNTLGAIANLIVKDPHMQQMIRQDMAAVQQLNVLRNSNRDDIRTAVKSVLNTLNQPCSHRYGDMSHSVGGGATGMQMLSEPQLQMQTSHHAYHGTASPRLLSLRATRASPGKYIQPQAQQQLIQTPQVDQRSSSLPRHFAVQRNGFVMAQSYNQQMDQHQQQQMIYQLQQQQQIMFQTEDQAQMEHHQQIMYLQQQQQQFHQIQQQQQMQKAQEADPVPPTDDDLDIPTSTVMGTRSNSERSLGSMNPGSVMTNWNSSLDTAANSSRALSPVSYNDIPASPTMCAQVFNLPKSTESEHHQLTSQQQNTTHYSSGSANTMTRSDGATTVPMDNIITPTYAILNPILVHEQTPNGTVPRKTSEELDSPDDVLPGPSLEEEEGDYAIIGGAAQKTDDELLTRSIQSEMPTSSSTPKMKVSPRLNGFFSPTQKTTSSPAWSHPDTSPIPKSSSHRTQPNRRQDASDADRLLMESIMSEMPKSRIISPRLAGTQQYLEPEPERRSHSKNEEADRRDAFTASHEPSDHNGIDVARGSDWSPQQQLHRMESLESQASSEDSFGLTAEEPNSSTSGAAANTMRFDDEIDASLPMDCVDDDDYDYTYDHFEDYEDEEDPDATQFDDGVDAQLTIDCSMISSGSGSSQRNETTTTSRDSKALATSTPKGSASSLPGVRQATRVSTNGKSRLPVPKTNGSLVDKNPKPIIASRRPRLPPKPTLLKDKHYPEEDSIENQTRDDTIYVNAPVVEAEQERIYMNALKQQKNIEQSPSIGNGSPIAKSAIVTPYNYQKPPFTGRNNGEMSNEKSVTPNPKQMLVTIV
partner: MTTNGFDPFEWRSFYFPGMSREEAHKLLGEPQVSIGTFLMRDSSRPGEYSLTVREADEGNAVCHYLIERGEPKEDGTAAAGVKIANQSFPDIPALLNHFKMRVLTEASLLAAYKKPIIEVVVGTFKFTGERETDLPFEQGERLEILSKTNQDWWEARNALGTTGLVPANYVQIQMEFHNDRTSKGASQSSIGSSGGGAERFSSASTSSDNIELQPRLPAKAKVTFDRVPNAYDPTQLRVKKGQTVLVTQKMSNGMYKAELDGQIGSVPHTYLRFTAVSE

Variants of: B1
Details: with ced2_caeel ced-2, Q9NHC3

| Variant | effect of a mutation on the interaction |
| --- | --- |
| Y489A | decreasing interaction |
